# Assays:
# [1] = tested on: C[C@H](CCC(=O)NCCS(=O)(=O)O)[C@H]1CC[C@H]2[C@@H]3CC[C@@H]4C[C@H](O)CC[C@]4(C)[C@H]3C[C@H](O)[C@]12C; experiment: purified protein; details: pH 7.5; 37.0 °C
# [2] = tested on: C[C@H](CCC(=O)NCCS(=O)(=O)O)[C@H]1CC[C@H]2[C@@H]3[C@@H](O)C[C@@H]4C[C@H](O)CC[C@]4(C)[C@H]3CC[C@]12C; experiment: purified protein; details: pH 7.5; 37.0 °C
substance,measurement,setting,value
B. theta BSH (BT_2086) (Bacteroides thetaiotaomicron VPI-5482),Km,[1],3.4 mM
same,kcat,[1],0.215 ± 0.01 s⁻¹
same,kcat/Km,[1],63.3 ± 11.7 M⁻¹ s⁻¹
same,Km,[2],8.2 mM
same,kcat,[2],0.255 ± 0.0133 s⁻¹
same,kcat/Km,[2],31.7 ± 5 M⁻¹ s⁻¹

# — publication PMC7036035
